Measurements published in a protein production outcome set (Wang et al. 2014).

Assay: label from the status in PepcDB records

Sequence	protein production
MFVVANIVVGIAKILDAILNLYFWVIIAAAVLSWVNPDPYNPVVRVVRNLTEPVFYRVRKWLPFTYVGGLDLSPLVVLLGIQIINSVLVQSLYQLAVRLY	failed
MSRSALSFAVFLAVVLSILGGMHAYLWLRLVRDPGLPEPWRRTGTVLLALLAVAIPVGMFSVRLASGWAARWLPVAAFTWLGLAFILFCAVAAIDLARLSAQLALFMGDWLRQVPDPPADPGRRLFVARAVAGGAVIAAGGSAALAFRSATGPAEIHEVAVRLDRLPPALSGLTIAQISDLHVGPAIREREVRRVVEQTNALRPDVVAITGDLVDGSVRELGHAVAELARLRARHGVFFVTGNHEYYSGVDAWVAELQRLGIRVLRNERVTVGDAGASIDLAGVDDWSSGQFGNGHGMNLPRALDGRDPDRSLVLLAHQPRAIGEAVRAGVELQLSGHTHGGQIFPFNLLVRAAYPYVKGLYPHAEGSAHGQIFVSRGTGYWGPPMRLGSPPEIARIVLT	failed
ISTVSGKVERLISFDIAKRWYLRDIAERMYTSESLIKKKLQDENTCFSKILLASRMSMARRLLELRQIPLHTIAEKCGYSSTSYFINTFRQYYGVTPHQFAQHSPGT	failed
MIKLIATDIDGTLVKDGSLLIDPEYMSVIDRLIDKGIIFVVCSGRQFSSEFKLFAPIKHKLLYITDGGTVVRTPKEILKTYPMDEDIWKGMCRMVRDELPACDYFAATPDFCFAEDGGSPIFHLLRDSYGFEMREVDDITRLDRNDIIKFTVFHPDKCEELCTPVFIPAWNKKAHLAAAGKEWVDCNAKGVSKWTALSYLIDRFDLLPDEVCCFGDNLNDIEMLQNAGISYAVSNARQEVIAAAKHTCAPYWENGVLSVLKSFL	not failed
MSGDILNDIVAACLELERKASSVFKMFAAHAGSDEARRFWETVADETRHHSAVYERLQERGGRENLPIIIYKPAETLEELEMIGKSIDEQVERYTEAPSSEAACLLGFRLQLYLLHPAFASLCRLTRDASGEDLPDIGYGRYLRRFIDGIGSCGLATAETELLGEALFRLWNEARQLAAQSHFDALTGVMTRAGFFKTVGSLAYAAQRSGSNVGIMLIDLDYFKLVGDNYGHQTGDRILQLVAETITSHLRRSDVVGRYDGDEFVVYLSPVEPASLRTVAENLRRSIEEESARMVPVTASIGVAQGILGTDVDGGIEELVRLADECLMQAKYTGKNKVVVK	not failed
IDPVMVAAFEGWNDAGDAASTAVAHLDREWKGEVFAALDAEDYYDFQVNRPTVWLDGGVRKITWPTTRLSVVRVGGEKPRDLVLVRGIEPSMRWRSFCNELLAFAHELGVELVVVLGALLGDTPHTRPVPVSGVTSDPDLARTMDLEETKYEGPTGIVGILQEACTHAGVPAVSLWAAVPHYVSQPPNPKATLALLNRLEDLIDVRIPLGELPEDARAWQVGVDQLAAEDSEVAEYVQSLEEARDTA	not failed
MAGCRTNAKGNAMPISIRIGNQDLTVDVSSLGAEMQALTSGDGRSWLWTGDAAFWTGRSPILFPIVGKAPDDKIAIDGTVYPMAQHGFARRSEFALAASTETMCRFELAASEATRAVYPFDFQLAVVHAVEGRALTVTAEVTNRDPKPMPFGLGFHSAFAWPLPGASGRDHIVTLDNKGEPALVRLEGGLINPAPLPSPFNAGRLVLDHSMFEQDAMIFPDGAGEGLAYGSEGGPAMRFHFKNLPNLALWTKPGAPFLCIEPWHGTAAEAGASSELSKRPSTTILAPGAVASFAFTVEIPQ	failed
MRVAVAGGTGLVGKYVVAELRAAGHTPVVLARSHGVDLTTGAGLAGKLSGSDAVIDVANIVTTRRKTAVDFFSRTTGHLIAAARAGGVAHLVTLSIVGSDEVDFGYYFGKRAQEELVRDGAVPWTVVRATQFFEFPEPLLNGVSPVVVVPRMLTRPVAAQDVAQTLVEHAVEGPAGMAPEIAGPDQLDMVDMARRIARARGSRRLVVPVTLPGKVGKAMTTGGLLPRGEYLRGRRTFDAHLASLRAA	failed
VPMNIKGLFEVAVKVKNLEKSSQFYTEILGFEAGLLDSARRWNFLWVSGRAGMVVLQEEKENWQQQHFSFRVEKSEIEPLKKALESKGVSVHGPVNLEWMQAVSLYFADPNGHALEFTAL	not failed
YTEPQIDDTNDGIVFSELTHPLIADAVANDFSLSQNILLTGSNASGKSTFMKSIAINIILASAIQTVTASKFVYQPGIVFTSMANADDVLSGDSYFMAELKSIKRIVEIPDNQKIYCFIDEIFKGTNTTERIAASESVLSFLHEKSNFRVIAATHDIELAELLKQRYENYHFNEVIENNNIHFDYKIKPGKANTRNAIELLKITSFPAKIYERAKDNVSN	failed
MAVSHSVKERTISENSLIILLQGLQGRVTTVDLRDESVAHGRIDNVDAFMNIRLAKVTYTDRWGHQVKLDDLFVTGPNVRYVHIPDDVNITSTIEQQLQIIHRVRNFGGKGQGRWEFPPKNCK	failed
SLKKIVESTTFPRTKQSITEDLKALGLKKGMTVLVHSSLSSIGWVNGGAVAVIQALIDVVTEEGTIVMPSQSVELSDPKEWGNPPVPEEWWDIIRESMPAYNSNYTPTTRGMGQIVELFRSYPEVKRSNHPNYSFVAWGKHKNKILNQHPLEFGLGEQSPLGKLYIRESYVLLLGADFDSSTCFHLAEYRIPYQKIINRGAPIIVEGKRVWKEYKELEFREELFQEVGQAFEAEHNMKVGKVGSANCRLFSLTEAVDFAEKWFINNDSKNIKK	not failed
MRYLVWALRLLVFVAVLMFALKNTNPVAVTFYADYVVHDVPLIVVMLVVFVVGALFGLLLTVPAAMRRRREALRLRREVERLQAAASGTPPVVTPEAVAPMSPL	failed
MRQPFQVLVIPFIKTEANYQFGVLHRTDADVWQFVAGGGEDEEAISETAKRESIEELNLDVDVKMYSLDSHASIPNFHFSFNKPYVVPEYCFAIDLTSCSYQVTLSLEHSELRWVSYESAIQLLEWDSNKTALYELNERLKNNDMKAM	not failed
MTNVGRPIETHAITVGQGSDARSIAALVRAPAQDERPTCIWLGGYRSDMTGTKALEMDDLAASLGVGAIRFDYSGHGASGGAFRDGTISRWLEEALAVLDHFKPEKAILVGSSMGGWIALRLIQELKARHDNPTQVSGMVLIAPAPDFTSDLIEPLLGDRERAELAENGYFEEVSEYSPEPNIFTRALMEDGRANRVMAGMIDTGCPVHILQGMADPDVPYQHALKLVEHLPADDVVLTLVRDGDHRLSRPQDIDRMRNAIRAMIEPRP	not failed
MHLPHFALSSVLSLTLCAIPNLGFASSNQTEDSTQARPTWLRDIALSPDGQKIAFTYAGQIWLVPAQGGDAVALTESGVYSETPIWSPDSQSIAFTADRYGLGDVFILSIQGGESRRLTYHGAKDIPYAFSADGQQLYFSSRRLGDDKANANVKQGSFMAQLYSVPAAGGREQRVLPIAISDLAISPSHSDILYTNQPSDEQPWRKGALSDATRDIWQWSPLTGKHTQITTFRGEDRNPVWSADGSSMYYLSEQAGSFNVWQQRFDGSEPVQITDHQKLPVRFLSASLQGDLAYGFDGEIWRLKAGAKQAEKVPVSIRRSAMPDGRHNVNFNLEATEMVVAPNAAEVAIVARGDVYVVSLLSGLTQRITDTPEAERDVSFSSDGYRLIYASEREGSWNLYQSYVNDGGKSFSSSLDIIEEPVLTTEQDVIQPLYSPNLKRIVYRENRNTLKVYDIEQDKTYTLLDAHALYSYFDKDLSYQWSPDSEYIVTRDRAMSNGDIQLLKFDGSEAPINLSQSGFSEFAPQFSADGQWVYWLTDAKGLRDIDDMVVQYDVYGVALNREAKFNFNKTQEQLWLEEEIAAEKNLGPGQNPPAELTVVENKGLKQRTMRMTPTSLNIIFKHLTHDNQALIIAYQLGDSVQISEINLRSGEMTALFNRLSEDAALLAMASDDASLLIMGEHGIENLNVLTGESKFVRYEAKANFDFRAEIRLLV	failed
MQVKTEEKSVNNKKLIPFWVIERALEGDIQAINKILKHYEGYIAKLSVRKMYDEYGCVHYCVDETLRRRLETKLIKTIIGFKIVRLEHHHHHH	not failed
RTFAVAAVAALVLPLSACGSGGDGGSSTDASGKVEGDITFQTWNLRANFKDYFEGLIADFEKKYPDTHVKWVDQPGEGYADKISADAAGGTLPDVVNVSPDLVAPLAKAGLALDLDKAAGQYEKEYLEGAWASHRIPGMDGTYAFPWYLNTGPLFYNKSLFEKAGLDPEQPPRTYDEVFDAALKIADKTDGEVATLANVPTIEDFGRYGVPLMNKEGTAFAFNDAKGVQLLARYKELYDAKALDPQALTATPESSGKKFLTGAVAMNPGSALDLANFKKQAPNLYENIGITDQITSTGHVNMYVMGLMVNAQSQRKPAAVAFAHYVTDAAHQMSFAKQVAIFPSTAGSLDDPYFTKEDGTDETRVRVAAAKSLKTAVNYTPVLFSEQMKTELRNEVAKALQGKQSPKEALDNAVKACDRLLQ	failed
MPWIQVYTPVAGSLGLSALVAAIPLVVIFVCLALFKMKAHKAGLLALASAMLIAITVWGMPAKLAGLATAQGAAFGLFPVFYIVITTIFLYNITVKGGQFEIIRASLAGVTADRRLQALLIAFCFGAFIEGAAGFGTPVAIAGATLAGLGFQPLYAAGVCLVANTAPVAFGAIGIPIVALAGVMGYGDDGMMKLSTMVGRQLPFISVIIPFYVIMIMVGWKKTIEILPAIIVCGVTFALSQWATATYLGPYLPDVTASLASIIALVLLLRVWQPKTIYTFAHEAPVTGATEHHYTTGEVFRAWSPYLALTVMVLLWGIPSIKTVLDKSTVEIEVKGLHNMIVKKVAKPEDTLTKIAAASAEIDRQLTLLSPADPKQAAIAAKLMELKAFETQLAAVEQGLVGQGAVLTDERLKACDIVSKKMAETQKLCKELVKTAAVPANQFKPLDKALADHLPLKVAAKYKFNFMSAAGTAILIAAFLSALICGVGFADTFRILGKTLYDMRFPALTVASVLGLAYVMNASGMTNCLGLIFTKTGHWFPFIAPFLGWLGVFLTGSDTSSNVLFGGLQKATAEQLGISPILTGAANTSGGVMGKMISPQSLAVATAATGMVGEEGTLFRFTLKHSIFLTILVGIIVYLQAYVLQWMIP	failed
MPVQENSFKSYSEVITGSIIYGTIGVFLDRVQDMSVGSVLFCRLLFGVFMIFFYLLLSGSLEQLRLRRNRKYLLLLGFLNAVTGICYLSAIRHSGISTAVLLLYTAPVYVNLLAPAILGEKGSSKSFLPLILSVLGVLLITRPGEILFNINAGSEFIKGLLYGILSGISFGTTIILIRYLRHDYTGISQTFWLTGVSLLFMLPSALLTPASVFLKNFDTLFLFGITITFAAILYLRGISGIKAQTGSILALLEPVSGIFFDTVVLRSPFYISTLLGCVLILTAAYLVSRNGTGDQSLKTDNQPVL	failed
MQYAYPLLAIFIWAGNTVINKLAVGAIFPAEIGFYRWLLAGLLFTPFMLKPVIKHWPEVRPNLWRIAILGVLGMAVYQSLAYFAASLTSATNMGIILSLMPLMSLAMAIAALGQRLTAGALVGAVLSFAGVLVVVSSGSLAALLQHGVNLGDAMMLVATLAYAIYSTLLKKWQLRLPPLVLLYLQVLVAVVVLLPLFLASPKVGPTLQNIPLVLYACLLASMLAPLAWMQAVVRLGPSRTTLFFNLLPLITALIAAVVLHEQLAWFHLVGGLLTLGGVILSERWTTVLGPLAGKPASAGQR	failed
MSLSTGATIVIDLGKTLSKVSLWDLDGRMLDRQVRPSIPLEIDGIRRLDAPDTGRWLLDVLSRYADHPVTTIVPVGHGAGIAALTDGRLAFPPLDYEQSIPEAVMADYRSQRDPFARTGSPALPDGLNIGSQLWWLDQLHPDVMANATLLPWAQYWAWFLTGRAVSEVTSLGCHSDLWDPQDGDFSPMAKRLGWAARFAPIVRAGDTVGALLPAIAERTGLSPDVQVLAGLHDSNAALLAARGFAEIADNEATVLSTGTWFIAMRLPATPVDTATLPEARDCLVNVDVHGRPVPSARFMGGREIETLIEIDTRRVDIKPDQPALLAAVPEVLRHGRMILPTLMRGFGPYPHGRFAWINRPEDWFERRAAACLYAALVADTALDLIGSTGRILVEGRFAEADVFVRALASLRPDCAVYTANAHNDVSFGALRLIDPGLRPQGELVRIEPLDTGSWADLDTYRNRWQAEVEAAKVEEGHHHHHH	not failed
